The source of these data is US20240067747A1 (SHANGHAI HUAOTA BIOPHARMACEUTICAL, published 2024).

Broadly, the EC50 is the midpoint of the concentration-response curve. For orientation: Kd means the concentration at which binding is half-saturated. What is called koff is the first-order rate constant of dissociation. One may read the kon as the rate constant with which the complex forms.

Changes are numbered by the printed parent chain.

To fix the notation:
T1: recombinant human CD73 protein (ACRO Biosystems, item No. CD3-H52H7) (human, UniProt P21589 27-547)
T1 construct: also called recombinant CD73 protein
T1 sequence (looked up): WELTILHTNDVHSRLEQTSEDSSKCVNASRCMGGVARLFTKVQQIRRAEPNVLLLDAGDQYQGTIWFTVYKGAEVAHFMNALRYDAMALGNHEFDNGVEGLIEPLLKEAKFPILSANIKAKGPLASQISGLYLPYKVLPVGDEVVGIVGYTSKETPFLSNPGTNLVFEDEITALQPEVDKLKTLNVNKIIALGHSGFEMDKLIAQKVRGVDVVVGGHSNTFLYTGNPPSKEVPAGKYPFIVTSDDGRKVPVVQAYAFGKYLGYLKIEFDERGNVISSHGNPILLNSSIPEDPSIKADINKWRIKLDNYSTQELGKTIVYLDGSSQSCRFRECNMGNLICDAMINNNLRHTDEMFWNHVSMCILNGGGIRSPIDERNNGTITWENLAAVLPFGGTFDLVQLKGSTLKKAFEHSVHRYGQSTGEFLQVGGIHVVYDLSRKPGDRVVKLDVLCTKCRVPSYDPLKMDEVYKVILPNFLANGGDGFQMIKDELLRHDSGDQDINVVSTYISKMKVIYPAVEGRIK

T2: human CD73 on the cell surface of CHOK1-huCD73-3F4 cells (Huabo Biopharm) (human, UniProt P21589 27-549)
T2 construct: whole, on cells; also called cells expressing human CD73; CD73 on cell membrane
T2 sequence (looked up): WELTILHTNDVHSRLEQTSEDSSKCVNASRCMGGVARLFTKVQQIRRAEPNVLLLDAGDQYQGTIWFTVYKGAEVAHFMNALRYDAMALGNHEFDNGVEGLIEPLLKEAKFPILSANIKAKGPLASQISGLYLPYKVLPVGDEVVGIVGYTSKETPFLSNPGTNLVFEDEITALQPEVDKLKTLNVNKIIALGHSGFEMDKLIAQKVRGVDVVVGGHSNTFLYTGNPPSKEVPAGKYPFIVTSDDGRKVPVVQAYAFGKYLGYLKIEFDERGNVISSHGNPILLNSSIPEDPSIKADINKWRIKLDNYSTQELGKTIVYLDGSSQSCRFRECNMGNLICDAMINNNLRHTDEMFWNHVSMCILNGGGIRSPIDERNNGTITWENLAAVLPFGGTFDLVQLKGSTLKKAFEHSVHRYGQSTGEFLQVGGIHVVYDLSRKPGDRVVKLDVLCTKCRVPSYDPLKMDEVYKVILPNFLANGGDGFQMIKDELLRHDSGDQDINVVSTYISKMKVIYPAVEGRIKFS

B1: 900567 (human-mouse chimeric anti-CD73 antigen-binding protein expressed from 124A9 variable regions) (antibody, V domains shown)
VH: QVQLQQPGAELVKPGASVKLSCKASGYTFTSYWIHWVKQRPGQGLDWIGMIHPNSGSTYYNEKFKSKATLTVDKSSSTAYMQLSSLTSEDSAVYYCARYYGSDYEWYFDVWGTGTTVTVSS
VL: DIVMTQSQKFMSTSVGDRVSITCKASQNVRTAVVWYQQNPGQSPKALIYLASNRHTGVPDRFTGSGSGTDFTLTISNVHSEDLADYFCLQHWNYPYTFGGGTKLEIK
B2: 900725 (humanized anti-CD73 antigen-binding protein) (antibody, V domains shown)
VH: QVQLVQSGAEVKKPGASVKLSCKASGYTFTSYWIHWVRQAPGQGLEWIGMIHPNSGSTYYNEKFKGRATLTVDKSTSTAYMELSSLRSEDTAVYYCARYYGSDYEWYFDVWGQGTTVTVSS
VL: DIQMTQSPSSMSASVGDRVTITCKASQNVRTAVVWYQQKPGKAPKALIYLASNRHTGVPDRFSGSGSGTDFTLTISSLQPEDFATYFCLQHWNYPYTFGQGTKLEIK
B3: 900727 (humanized anti-CD73 antigen-binding protein) (antibody, V domains shown)
VH: B2 VH with L20V, N61A, E62Q, K65Q, A68V, L70I
VL: B2 VL
B4: 900726 (humanized anti-CD73 antigen-binding protein) (antibody, V domains shown)
VH: B2 VH
VL: B2 VL with M11L, F87Y
B5: 900728 (humanized anti-CD73 antigen-binding protein) (antibody, V domains shown)
VH: B2 VH with L20V, K65Q, A68V, L70M
VL: B2 VL with M11L, F87Y

One assay has as its target T1, recombinant human CD73 protein (ACRO …). In words: ELISA, plate coated with CD73 protein, anti-human-IgG-Fc-HRP. The procedure: The ELISA well plate was coated with 30 ul of 2 ug/ml CD73 protein (ACRO, #CD3-H52H7-100μg) solution and incubated overnight at 4° C. Then, the well plate was washed 3 times with PBST, blocked with 5% MILK/PBS at room temperature for 1 h, and then washed 3 times with PBST. […] The diluted antigen-binding protein solutions were then added to the ELISA well plate, 30 ul per well, and incubated at room temperature for 30 min. After the incubation, the well plate was washed 3 times. Anti-human-IgG-Fc-HRP was added and incubated at room temperature for 50 min. After the incubation, the well plate was washed 3 times. The TMB solution was added. The reaction was then terminated with 2M HCl and the OD450 reading was checked.
A general note: ELISA stands for enzyme-linked immunosorbent assay.
With B1, the EC50 is 0.282 µg/mL.

With B2, the EC50 is 0.327 µg/mL.

Regarding B3, the EC50 was found to be 0.364 µg/mL.

With B4, the EC50 was 0.361 µg/mL.

In the case of B5, the EC50 amounted to 0.29 µg/mL.

In a further assay the target is T2, human CD73 on the cell surface of …. As to the kind of experiment: flow cytometry on CHOK1-huCD73-3F4 cells, PE-goat anti-human-Fc. The procedure: All antigen-binding proteins were diluted to 30 μg/ml with 1% BSA in PBS solution (1% BSA/PBS) and then 3-fold diluted for 11 gradients. The diluted antigen-binding proteins were added to a 96-well U-shaped plate at 20 μL per well; and a negative control (with 1% BSA/PBS added only) was set up at the same time. The suspension of cells (CHOK1-huCD73-3F4, Huabo Biopharm) expressing human CD73 during the logarithmic growth phase were centrifuged (1000 rpm×5 min) to discard the culture medium; and the cells were resuspended with 1% BSA/PBS until the density of viable cells was 1×10⁶/mL, and were added, at 20 μL (2×10⁴ cells) per well, to the 96-well U-shaped plate with the […] antigen-binding protein to react for 30 min at room temperature. After reaction, the 96-well U-shaped plate was resuspended with 1% BSA/PBS, centrifuged (300 g×3 min) to discard the supernatant, and washed once in such a way. PE-goat anti-human-Fc (Jackson ImmunoResearch, #109-115098) diluted at 1:200 was added to react for 15 min in the dark at room temperature. After reaction, the 96-well U-shaped plate was resuspended with 1% BSA/PBS, centrifuged (300 g×3 min) to discard the supernatant, washed three times in such a way, and finally resuspended with 100 μL of 1% BSA/PBS for each wall; and the fluorescence intensity of a PE channel was detected with a flow cytometer (BD, #Cantoll).
On the technique in general: A flow cytometer gives signals particle by particle.
In turn, B1 returned an EC50 of 0.021 µg/mL.

The next assay deals with T1, recombinant human CD73 protein (ACRO …). In words: SPR, Biacore T200, antibody captured on protein A chip, human CD73 as analyte, 1:1 model. The procedure:
In the tests, the assay buffer HBS-EP+ (pH 7.4) and the protein A chip (manufacturer: GE, item No.: 29-1275-56) were used.
The temperatures of a sample chamber and a flow path were set at 25° C., and the protein A chip respectively captured chimeric antibodies or humanized antibodies as ligands and immobilized at about 100 RU. […] After association for 120 s at a flow rate of 30 μL/min, dissociation was carried out for 600 s. Regeneration was then carried out for 60 s with 10 mM Glycine (pH 1.5) at a flow rate of 50 μL/min to implement multi-cycle kinetic detection. A 1:1 binding model was selected for fitting analysis in a Fit local mode to acquire the association rate constant (ka), dissociation rate constant (kd) and dissociation equilibrium rate constant (KD).
A general note: SPR reads the build-up and loss of mass on a sensor chip optically.
Take B1: the Kd came to 0.652 nM, the koff came to 0.00049 s⁻¹ and the kon turned out to be 752000 M⁻¹ s⁻¹.

B2: the Kd is 0.201 nM, the koff was found to be 0.000126 s⁻¹ and the kon came out at 626000 M⁻¹ s⁻¹.

B3: the Kd came out at 0.789 nM, the koff worked out at 0.000494 s⁻¹ and the kon was determined as 626000 M⁻¹ s⁻¹.

Consider B4, for which the Kd was 2.49 nM, the koff was determined as 0.00124 s⁻¹ and the kon was 496000 M⁻¹ s⁻¹.

Turning to B5, the Kd came out at 0.377 nM, the koff was 0.000317 s⁻¹ and the kon amounted to 841000 M⁻¹ s⁻¹.

The next assay deals with T2, human CD73 on the cell surface of …. In words: cell-based or functional assay.
On to B1, for which the “EC50 of inhibition of the enzyme activity of CD73 on cell membrane (AMP/ATP, CellTiter-Glo)” value is 0.0749 µg/mL.
